Patent US20260124313A1, “SITE-SPECIFIC COVALENT LIGATION OF HUMAN SERUM ALBUMIN” (The Regents of the University of California, priority 2022, published 2026)
Non-standard residues stand in square brackets, D forms with d. No end group written: not given here. *: point of attachment. Myristoyl = CCCCCCCCCCCCCC(=O)*; Aad = N[C@@H](CCCC(=O)O)C(=O)O; Acryloyl = C=CC(=O)*

Target: T1, albumin in human serum (Homo sapiens, UniProt P02768)
T1 construct: tissue Sigma Aldrich; host or cells: human serum
Test: Conjugation to serum-borne HSA in human serum, SDS-PAGE fluorescence and Coomassie Blue
Type: biochemical
Method: Protein SDS-PAGE gels were exposed at green channel (Exc.=490 nm, Emm.=525 nm), then stained by Coomassie Blue.
To 100 μl human serum was added 10 μl FC-LYL1 or 10 μl FC-Mal stock solution (1 mM). The albumin content in serum is presumed to be 600 μM for healthy donors. The final concentrations of albumin and FC-labeled reactive probes in the reaction mixture are calculated to be 545 µM and 91 μM, respectively. The serum/ligands mixture was incubated at 37° C. in dark. The conjugation reactions were setup every 3 days, and […] conjugation reactions were setup in total for 3 weeks. The serum mixtures were subjected to electrophoresis and Coommassie Blue Staining without further treatment. Since albumin to probe ratio was about 6:1 and there are 5 known fatty acid binding sites on each albumin molecule, fatty acid binding site:probe ratio was over […]. We therefore believe significant portion of the reactive probes would be sequestered in the “non-productive” (no covalent ligation) fatty acid binding sites most of the time.

Substance: FC-LYL1: FITC-tagged LYL1 (Myristoyl-[dE]DK(Acryloyl)[dS][Aad]; not fully specified (C-terminus); also: FITC on amino group of C-terminal lysine)
- reaction speed in human serum (545 μM albumin, 91 μM probe, 37° C.): slow reaction over days
- selectivity of protein labeling in serum (human serum, SDS-PAGE green channel): can selectively label albumin content
